For one experiment, the target named is T1, human LEPR Ig (D3)-MMH (human, UniProt P48357 340-427, limits assumed).
T1 construct: domain: Ig (D3)
T1 sequence (looked up): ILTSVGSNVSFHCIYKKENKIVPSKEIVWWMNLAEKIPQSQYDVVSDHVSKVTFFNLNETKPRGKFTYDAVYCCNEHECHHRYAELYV
Briefly: Luminex, myc-captured protein on beads. As to the method: (§1) Aliquots of microspheres with immobilized anti-myc monoclonal antibodies, prepared as described above, were added individually to 1 mL of the each of these protein supernatants. The microspheres were gently mixed, incubated for two hours at 25° C., washed twice with 1 mL of DBPS, centrifuged to remove the supernatant and finally resuspended in 1 mL of DPBS buffer. […] of anti-myc IgG coupled microspheres from individual reactions with full length human LEPR and with each of the human LEPR domain proteins were withdrawn and mixed together in 3.6 mL of PBS+20 mg/mL BSA+0.05% sodium azide (blocking buffer).
(§2) From this mixed pool, 75 μL of microspheres were plated per well on a 96 well filter plate (Millipore, Cat. No: MSBVN1250) and mixed with 25 μL of individual anti-human LEPR monoclonal antibodies (0.5 or 5 μg/mL), incubated for two hours at 25° C. and then washed twice with 200 μL of DPBS with 0.05% Tween 20 (washing buffer). […] After 30 minutes, the samples were washed twice with 200 µL of washing buffer and resuspended in 150 μL of wash buffer. The Median Fluorescence intensity (MFI) of the microspheres was measured in a Luminex Analyzer.

Experiment [1] has as its target T2, human LEPR CRH1-Ig (D2,D3)-MMH (human, UniProt P48357 230-427, limits assumed).
T2 construct: domain: CRH1-Ig (D2,D3)
T2 sequence (looked up): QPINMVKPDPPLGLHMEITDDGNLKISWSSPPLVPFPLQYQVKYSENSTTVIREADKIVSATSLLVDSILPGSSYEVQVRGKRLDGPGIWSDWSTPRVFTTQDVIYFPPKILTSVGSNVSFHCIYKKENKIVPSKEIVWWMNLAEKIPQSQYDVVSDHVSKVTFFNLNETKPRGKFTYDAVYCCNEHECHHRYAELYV
Briefly: Luminex, myc-captured protein on beads. As to the method: as §1, §2

B1: H4H18482P2 (antibody, human IgG4, V domains shown)
VH: QVQLQESGPGLVKPSQTLSLTCTVSGGSISSGNYYWNWIRQQPGEGLEWIAYIYHNGVTNFNPSLKSRLTISVDTSKTQFSLKLRSVTAADTAVYYCARSGSWFENWYFDLWGRGTLVTVSS
VL: not shown
notes: human IgG4 Fc
For B1, in the experiment with human LEPR Ig (D3)-MMH, the “Luminex MFI” value was determined as 27 MFI.

B2: H4H18487P2 (antibody, V domains shown)
VH: QVQLQESGPGLVKPSETLSLTCTVSGGSISNSYWSWIRQPPGKGLEWIGYVYSRGNTKYNPSLTSRVTMSFDTSKNQFSLKLRSVTAADTAVYYCARSSSWYEDWYFDLWGRGTLVTVSS
VL: not shown
In the case of B2, the “Luminex MFI” value with human LEPR Ig (D3)-MMH was found to be 22 MFI; in experiment [1], 62 MFI.

B3: H4H18492P2 (antibody, V domains shown)
VH: QVQLQQWGAGLFKPSETLSLTCDVYGGSFRGYYWSWIRQPPGKGLEWIGEISYSGFTNYNPSLKSRVIISIDTSKNQFSLKMSSVTAADTAVYYCARVTYGYGTFDYWGQGTLVTVSS
VL: not shown
As for B3, the “Luminex MFI” value amounted to 19 MFI with human LEPR Ig (D3)-MMH and 8680 MFI in experiment [1].

Source of the values: patent US20190309079A1 (Regeneron, published 2019).
